For series [1], the target named is human CLPB isoform 1 (human). Briefly: negative staining electron microscopy + cryo-EM 2D classification; CLPB^isoform1-AMPPNP dataset, protein purified from E. coli.
For series [2], the target named is human CLPB NBD-only variant with E425Q (human) (UniProt Q9H078). Description: cryo-EM structure; NBD^E425Q-ATP dataset; self-assembly into hexamer, heptamer and nonamer.
In series [3] the target is human CLPB NBD-only variant (N-terminal ANK domain truncated) (human) (UniProt Q9H078). Briefly: cryo-EM 2D classification; NBD^WT-AMPPNP dataset.
Series [4] concerns the molecule itself. Description: cryo-EM 2D classification; CLPB-ATPγS dataset, control without casein.
Series [5] concerns the molecule itself. Description: SEC + other: negative staining electron microscopy; proteins purified from E. coli; Superose 6 Increase 10/300 GL, 20 mM HEPES-KOH pH 6.8, 300 mM KCl, 5 mM MgCl2; with or without AMPPNP; peak fraction seen by nsEM.
Series [6] deals with the molecule itself. Briefly: cryo-EM structure; CLPB^E425Q-ATP dataset; sample treated with ATP and about 1 mM BS3, 0.5 mM CHAPSO added; self-assembly of the mutant.
Series [7] deals with the molecule itself. Briefly: SEC; purification of CLPB, CLPB^Δ201–232 and CLPB^isoform1 complexes by size-exclusion chromatography (S7C–S7E Fig).

Residue numbers refer to the chain shown, from its start. Names may count otherwise. “And” between values parts separate entries of the source, which are not always exact repeats. Equal values may be shown once.

For human CLPB isoform 1 (enzyme), the stoichiometry N in series [1] is 14. Consider “human CLPB NBD-only variant with E425Q (from UniProt Q9H078-2 1-677) (domain or fragment)”, for which, in series [2], the stoichiometry N was 6 and 7 and 9. Regarding “human CLPB NBD-only variant (N-terminal ANK domain truncated) (from UniProt Q9H078-2 1-677) (domain or fragment)”, the stoichiometry N in series [3] was 6 and 7.

B1: human CLPB (isoform 2), construct CLPB-N127, wild type (enzyme, UniProt Q9H078-2 127-677, looked up)
chain: YSKSPSNKDAALLEAARANNMQEVSRLLSEGADVNAKHRLGWTALMVAAINRNNSVVQVLLAAGADPNLGDDFSSVYKTAKEQGIHSLEVLITREDDFNNRLNNRASFKGCTALHYAVLADDYRTVKELLDGGANPLQRNEMGHTPLDYAREGEVMKLLRTSEAKYQEKQRKREAEERRRFPLEQRLKEHIIGQESAIATVGAAIRRKENGWYDEEHPLVFLFLGSSGIGKTELAKQTAKYMHKDAKKGFIRLDMSEFQERHEVAKFIGSPPGYVGHEEGGQLTKKLKQCPNAVVLFDEVDKAHPDVLTIMLQLFDEGRLTDGKGKTIDCKDAIFIMTSNVASDEIAQHALQLRQEALEMSRNRIAENLGDVQISDKITISKNFKENVIRPILKAHFRRDEFLGRINEIVYFLPFCHSELIQLVNKELNFWAKRAKQRHNITLLWDREVADVLVDGYNVHYGARSIKHEVERRVVNQLAAAYEQDLLPGGCTLRITVEDSDKQLLKSPELPSPQAEKRLPKLRLEIIDKDSKTRRLDIRAPLHPEKVCNTI
notes: human CLPB, splicing isoform 2, starting from the PARL cleavage site (between C126 and Y127) to the C-terminus; Double-heptamer (tetradecamer) in the apo state; about 1 mM BS3 was added to the samples for cryo-EM; also called SKD3; WT CLPB; source: E. coli Transetta (DE3), purified (ammonium sulfate, Mono Q, TEV cleavage, Superose 6 SEC); not shown: His×6-SUMO, N-terminal, cleaved; copies: 14
B1: the “stoichiometry N” value in series [4] turned out to be 14.

B2: human CLPB (isoform 2) R178E (enzyme, UniProt Q9H078-2 127-677, looked up)
chain: B1 chain with R52E
notes: human CLPB isoform 2 (CLPB-N127) with R178E; also called CLPB^R178E; source: E. coli, purified; not shown: His×6-SUMO, N-terminal, cleaved
Consider B2, for which, in series [5], the binding result is “binds”.

B3: human CLPB (isoform 2, CLPB-N127) Walker B mutant E425Q (enzyme, UniProt Q9H078-2 127-677, looked up)
chain: B1 chain with E299Q
notes: human CLPB isoform 2 from the PARL cleavage site (Y127) to the C-terminus, with E425Q; Double-hexamer (dodecamer) with a co-purified endogenous peptide in the central channel; also called CLPB^E425Q; source: E. coli, purified as the wild type; not shown: His×6-SUMO, N-terminal, cleaved; copies: 12
As to B3, the “stoichiometry N” value in series [6] turned out to be 12.

B4: human CLPB (isoform 2) R227E (enzyme, UniProt Q9H078-2 127-677, looked up)
chain: B1 chain with R101E
notes: human CLPB isoform 2 (CLPB-N127) with R227E; also called CLPB^R227E; source: E. coli, purified; not shown: His×6-SUMO, N-terminal, cleaved
Regarding B4, the binding result in series [5] is on record as “binds”.

B5: human CLPB (isoform 2) with the ANK insertion deleted (enzyme, UniProt Q9H078-2 127-677, looked up)
chain: YSKSPSNKDAALLEAARANNMQEVSRLLSEGADVNAKHRLGWTALMVAAINRNNSVVQVLLAAGADPNLGDDFSSFKGCTALHYAVLADDYRTVKELLDGGANPLQRNEMGHTPLDYAREGEVMKLLRTSEAKYQEKQRKREAEERRRFPLEQRLKEHIIGQESAIATVGAAIRRKENGWYDEEHPLVFLFLGSSGIGKTELAKQTAKYMHKDAKKGFIRLDMSEFQERHEVAKFIGSPPGYVGHEEGGQLTKKLKQCPNAVVLFDEVDKAHPDVLTIMLQLFDEGRLTDGKGKTIDCKDAIFIMTSNVASDEIAQHALQLRQEALEMSRNRIAENLGDVQISDKITISKNFKENVIRPILKAHFRRDEFLGRINEIVYFLPFCHSELIQLVNKELNFWAKRAKQRHNITLLWDREVADVLVDGYNVHYGARSIKHEVERRVVNQLAAAYEQDLLPGGCTLRITVEDSDKQLLKSPELPSPQAEKRLPKLRLEIIDKDSKTRRLDIRAPLHPEKVCNTI
notes: human CLPB isoform 2 (CLPB-N127) with the insertion between AM2 and AM3 completely deleted; source: E. coli, purified; not shown: His×6-SUMO, N-terminal, cleaved
In the case of B5, in series [7], the binding result is listed as “binds”.

The record behind these values is paper PMC9934407, “Comprehensive structural characterization of the human AAA+ disaggregase CLPB in the apo- and substrate-bound states reveals a unique mode of action driven by oligomerization” (PLOS Biology, 2023).
